Data reported in EP1783227A1.
Several values for one entry are separate records, joined by “and”; a condition that tells them apart may be missing. Identical values can stand only once.

Molecular target: human CCR2 (endogenous, on THP-1 cells, THP-1 cell membranes, PBMC and whole blood leukocytes) (human) (UniProt P41597)
Experiment: competition with 0.1 nM [125I]MCP-1 on fresh PBMC (500,000 cells), filtration and scintillation counting

Sequence of UniProt P41597 (P41597 whole entry): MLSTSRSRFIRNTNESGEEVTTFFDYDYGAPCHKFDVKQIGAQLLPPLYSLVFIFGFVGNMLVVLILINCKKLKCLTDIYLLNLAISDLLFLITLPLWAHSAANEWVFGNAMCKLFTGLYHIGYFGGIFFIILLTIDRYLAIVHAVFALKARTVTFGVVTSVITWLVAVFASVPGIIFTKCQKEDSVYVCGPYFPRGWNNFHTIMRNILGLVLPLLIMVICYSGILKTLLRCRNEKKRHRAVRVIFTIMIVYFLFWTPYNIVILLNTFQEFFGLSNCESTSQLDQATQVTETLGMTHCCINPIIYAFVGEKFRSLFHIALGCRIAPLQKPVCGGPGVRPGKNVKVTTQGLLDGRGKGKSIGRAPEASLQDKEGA

IC50: 0.2 nM and 0.04 µg/mL
Substance: murine monoclonal antibody LS132.1D9
